Test results reported in patent US6461841B2, “L-amino acid oxidase from Rhodococcus species” (Degussa AG, priority 2000, dated 2002).
“And” between values parts separate entries of the source, which are not always exact repeats. Equal entries are not always repeated.

Experiments:
Test in all cases: purified protein, by the assay type
Conditions in all cases: other: 0.2 M TEA-HCl buffer, pH 7.6, 30° C.
[1] = substrate: CC(C)C[C@H](N)C(=O)O
[2] = substrate: CC(C)[C@H](N)C(=O)O
[3] = substrate: CC[C@H](C)[C@H](N)C(=O)O
[4] = substrate: NC(=O)CC[C@H](N)C(=O)O
[5] = substrate: NCCC[C@H](N)C(=O)O
[6] = substrate: CSCC[C@H](N)C(=O)O; type: biochemical
Method: (§1) To determine the kinetic constants, the reaction speed of oxidation was studied at different concentrations of amino acid and for different L-amino acids, under the following conditions (tests in microtiter plates):
(§2) 0.2 M TEA-HCl buffer, pH 7.6; 0.2 mg/mL o-dianisidine; 25 U/mL POX; L-amino acid oxidase in limiting amounts; varying concentrations of the different L-amino acids. Activity measurement was conducted by photometry at 450 nm and 30° C.
(§3) The kinetic constants Vmax.

[7] = substrate: C[C@H](N)C(=O)O; type: biochemical
Method: as §1, §2, §3

[8] = substrate: N=C(N)NCCC[C@H](N)C(=O)O; type: biochemical
Method: as §1, §2, §3

[9] = substrate: NC(=O)C[C@H](N)C(=O)O; type: biochemical
Method: as §1, §2, §3

[10] = substrate: NC(=O)NCCC[C@H](N)C(=O)O; type: biochemical
Method: as §1, §2, §3

[11] = substrate: NCCCC[C@H](N)C(=O)O; type: biochemical
Method: as §1, §2, §3

[12] = substrate: N[C@@H](CO)C(=O)O; type: biochemical
Method: as §1, §2, §3

[13] = substrate: N[C@@H](Cc1ccccc1)C(=O)O; type: biochemical
Method: as §1, §2, §3

B1: L-amino acid oxidase from Rhodococcus opacus (Rhodococcus opacus) (protein)
chain: AGDLIGKVKGSHSVVVLGGGPAGLCSAFELQKAGYKVTVLEARTRPGGRVWTARGGSEETDLSGETQKCTFSEGHFYNVGATRIPQSHITLDYCRELGVEIQGFGNQNANTFVNYQSDTSLSGQSVTYRAAKADTFGYMSELLKKATDQGALDQVLSREDKDALSEFLSDFGDLSDDGRYLGSSRRGYDSEPGAGLNFGTEKKPFAMQEVIRSGIGRNFSFDFGYDQAMMMFTPVGGMDRIYYAFQDRIGTDNIVFGAEVTSMKNVSEGVTVEYTAGGSKKSITADYAICTIPPHLVGRLQNNLPGDVLTALKAAKPSSSGKLGIEYSRRWWETEDRIYGGASNTDKDISQIMFPYDHYNSDRGVVVAYYSSGKRQEAFESLTHRQRLAKAIAEGSEIHGEKYTRDISSSFSGSWRRTKYSESAWANWAGSGGSHGGAATPEYEKLLEPVDKIYFAGDHLSNAIAWQHGALTSARDVVTHIHERVAQEA
notes: made in house; host or cells: Rhodococcus opacus DSM 43250, the natural producer; purified from crude cell extract, not recombinant
Km [1]: 0.028 mM | Vmax [1]: 6.45 µmol/min/mg | Km [2]: 3.73 mM | Vmax [2]: 1.93 µmol/min/mg | Km [3]: 5.11 mM | Vmax [3]: 2.84 µmol/min/mg | Vmax [4]: 5.06 µmol/min/mg and 2.32 µmol/min/mg | Km [5]: 0.034 mM | Vmax [5]: 7.48 µmol/min/mg | Km [6]: 0.039 mM | Km [7]: 0.274 mM | Vmax [7]: 4.27 µmol/min/mg | Km [8]: 0.070 mM | Vmax [8]: 8.12 µmol/min/mg | Km [9]: 0.028 mM | Vmax [9]: 5.37 µmol/min/mg | Km [10]: 0.026 mM | Vmax [10]: 5.47 µmol/min/mg | Km [11]: 0.015 mM | Vmax [11]: 3.56 µmol/min/mg | Km [12]: 1.36 mM | Vmax [12]: 4.36 µmol/min/mg | Km [13]: 0.019 mM | Vmax [13]: 5.64 µmol/min/mg
